The target in assay [1] is T1, KPGVISVMGT, last 10 amino acids of the type VI collagen α3 chain (selection / immunogenic peptide).
T1 construct: also called PRO-C6
T1 peptide: KPGVISVMGT
The assay can be described thus: screening of hybridoma cell lines against peptides. On the procedure: (§1) Mouse spleen cells were fused with SP2/0 myeloma fusion partner cells. The fusion cells were raised in 96-well plates and incubated in the CO2-incubator. Here standard limited dilution was used to promote monoclonal growth. Cell lines specific to the selection peptide and without cross-reactivity to either elongated peptide ([…] (SEQ ID No: 2), Chinese Peptide Company, China) or truncated peptide ([…] (SEQ ID No: 3), American Peptide Company, USA) were selected and sub-cloned. At last the antibodies were purified using an IgG column.

Assay [2] addresses T2, elongated peptide KPGVISVMGTA
T2 peptide: KPGVISVMGTA
Put plainly: screening of hybridoma cell lines against peptides. On the procedure: as §1

Assay [3] deals with T3, truncated peptide KPGVISVMG
T3 peptide: KPGVISVMG
Put plainly: screening of hybridoma cell lines against peptides. As for the experimental part: as §1

In assay [4] the target is T4, CPTGPQNYSP, C-terminal neo-epitope sequence of the α1 chain PIIINP (free calibrator peptide).
T4 construct: also called PRO-C3
T4 peptide: CPTGPQNYSP
Put plainly: hybridoma screening, indirect ELISA on streptavidin-coated plates with the free peptide as calibrator. On the procedure: A monoclonal antibody specific for Pro-C3 was developed as described in WO 2014/170312 (Nordic Bioscience, incorporated herein by reference) using sequence 145′-[…]-′153 (SEQ ID No: 14) of the α1 chain PIIINP as an immunogenic peptide. Briefly, generation of monoclonal antibodies was initiated by subcutaneous immunization of 4-5 week old Balb/C mice with 200 μl emulsified antigen and 50 μg PIIINP neo-epitope C-terminus sequence (OVA-CGG-[…] (SEQ ID No: 32)) using Freund's incomplete adjuvant. The immunizations were repeated every 2 weeks until stable serum titer levels were reached. The spleen cells were fused with SP2/0 myeloma cells to produce hybridoma, and cloned in culture dishes using the semi-medium method. The supernatants were screened for reactivity against calibrator peptide and native material in an indirect ELISA using streptavidin-coated plates. Biotin-CGG-[…] (SEQ ID No: 33) was used as screening peptide, while the free peptide […] (SEQ ID No: 14) was used as calibrator to test for further specificity of clones.

B1: monoclonal antibody specific for Pro-C6 (monoclonal antibody 10A3) (antibody, mouse IgG1, kappa, V domains shown)
VH: EVQLQQSGPVMVKPGTSVKTSCKASGYTFTDFNMNWVKQSHGKSLEWIGAINPHNGATSYNQKFSGKATLTVDKSSSTAYMELNSLTSDDSAVYYCARWGNGKNSWGQGTTLTVSS
VL: DVVMTQTPLSLPVNLGDQASISCRSSQRIVHSNGITFLEWYLQKPGQSPKLLIYRVSNRFSGVPDRFSGSGSGTDFTLKISRVEAEDLGLYYCFQGSHVPLTFGAGTRLELKR
notes: Mouse IgG1 / kappa from a hybridoma; the antibodies were purified on an IgG column afterwards; also called PRO-C6 antibody
In the case of B1, the binding result in assay [1] was “binds”; in assay [2] it was “no binding”; in assay [3] it was “no binding”.

B2: monoclonal antibody specific for Pro-C3 (monoclonal antibody NB61N-62) (antibody, V domains shown)
VH: EVQLQQSGPEVLKPGASVKMSCKASGYTFINYVIHWLKQKAGQGPEWIGYMNPYNDVPKNNAKFRGKARLTSDRSSTTAYMELNSLTSEDSAVYYCARGGFFGPLSYWGQGTLVTVSA
VL: DVLMTQTPLSLSVSLGDQASISCRSSQNIVYSNGDTYFEWYLQKPGQSPKLLIYKVSQRFSGVPDRFSGSGSGTDFTLKISRVETEDLGVYYCFQGAHDPPAFGGGTKLELKR
notes: Mouse IgG2A / kappa; also called PRO-C3 antibody
As for B2, in assay [4], the binding result is listed as “binds”.

Source of the values: patent US20220317133A1 (NORDIC BIOSCIENCE A S, published 2022).
